The record followed here is paper PMC2116414.

The target in the assay is Acanthamoeba myosin-II (Acanthamoeba). The experiment in a line: electron microscopy.

In general, stoichiometry N refers to the number of molecules, sites or subunits per partner or assembly.

Turning to Acanthamoeba myosin-II (complex), the stoichiometry N stood at 8.
